The source of these data is patent US20230087785A1, “Leucine-Rich Repeat Kinase 2 Allosteric Modulators” (VIB VZW, priority 2020, published 2023).

In series [1] the target is T1, endogenous LRRK2 (Mus musculus, UniProt Q5S006).
T1 construct: endogenous in cells; host or cells: RAW264.7
Briefly: Colocalization of GFP-Nbs with endogenous LRRK2 on zymosan-containing phagosomes in RAW264.7 cells. The class given is cell-based. To be noted: RAW264.7 cells transfected with GFP-Nbs, zymosan 30 mins, fixed cells. As for the experimental part:
RAW264.7 cells were transfected with GFP-fused Nbs and treated with Zymosan for 30 mins. Recruitment of LRRK2 and Nbs to the phagosomes was analyzed by immunofluorescence. FIG. 16A, images for Nb38, Nb22, Nb23, Nb40, No Nb, or Irrelevant (IRR) Nb treatments; FIG. 16B, images for Nb36, Nb42, Nb17, Nb39, Nb1, and Nb6 treatments. Scale bar=10 μm.
To test whether Nbs can trace and visualize endogenous LRRK2 in fixed cells, we generated green fluorescent protein (GFP)-Nb fusions (fluobodies) as described before. Recently, it was shown that LRRK2 is recruited to phagosomes upon induction of phagocytosis in immune cells. Therefore, RAW264.7 cells were transfected with these fluobodies and treated with killed yeast bioparticles “zymosan” to induce phagocytosis.
RAW264.7 cells (ATCC® SC-6003™) were transfected with peGFP-Nb constructs using JetOPTIMUS (Polyplus transfection) for 24 hrs and then stimulated with Zymosan particles (Sigma Aldrich) for 30 mins ([…]). Immunostaining for LRRK2 was performed as reported before. Briefly, cells fixed with 4% (w/v) paraformaldehyde for 30 min, followed by treatment with 100% EtOH at −20° C. Sampled were permeabilized with PBS/0.5% Triton X-100 and blocked with 3% BSA. Primary antibodies (rabbit anti-LRRK2, c41-2, Abcam and mouse anti-GFP, G6539, Sigma Aldrich) were diluted in PBS containing 3% BSA and 0.5% Triton X-100 and incubated overnight at 4° C. After three 5-min washes with PBS, secondary fluorescently labeled antibodies (anti-rabbit-Alexa fluor 568 and anti-mouse-Alexa fluor 488, Invitrogen) were added in a similar manner to primary antibodies and incubated for 1 hour at room temperature. Cells were washed twice with 1×PBS and mounted with Fluroshield antifade reagent with DAPI (SigmaAldrich). Images were acquired on Zeiss LSM800 confocal laser scanning microscope. Image analysis of z-scan was done using the Zeiss microscope software ZEN.

The target in series [2] is T2, LRRK2(G2019S) (Homo sapiens, UniProt Q5S007, G2019S/M2397T/R50H).
T2 construct: SF tag (FLAG + Twin-Strep); expressed in transfected cells; host or cells: HEK 293T
T2 sequence (Q5S007 whole entry R50H/G2019S/M2397T): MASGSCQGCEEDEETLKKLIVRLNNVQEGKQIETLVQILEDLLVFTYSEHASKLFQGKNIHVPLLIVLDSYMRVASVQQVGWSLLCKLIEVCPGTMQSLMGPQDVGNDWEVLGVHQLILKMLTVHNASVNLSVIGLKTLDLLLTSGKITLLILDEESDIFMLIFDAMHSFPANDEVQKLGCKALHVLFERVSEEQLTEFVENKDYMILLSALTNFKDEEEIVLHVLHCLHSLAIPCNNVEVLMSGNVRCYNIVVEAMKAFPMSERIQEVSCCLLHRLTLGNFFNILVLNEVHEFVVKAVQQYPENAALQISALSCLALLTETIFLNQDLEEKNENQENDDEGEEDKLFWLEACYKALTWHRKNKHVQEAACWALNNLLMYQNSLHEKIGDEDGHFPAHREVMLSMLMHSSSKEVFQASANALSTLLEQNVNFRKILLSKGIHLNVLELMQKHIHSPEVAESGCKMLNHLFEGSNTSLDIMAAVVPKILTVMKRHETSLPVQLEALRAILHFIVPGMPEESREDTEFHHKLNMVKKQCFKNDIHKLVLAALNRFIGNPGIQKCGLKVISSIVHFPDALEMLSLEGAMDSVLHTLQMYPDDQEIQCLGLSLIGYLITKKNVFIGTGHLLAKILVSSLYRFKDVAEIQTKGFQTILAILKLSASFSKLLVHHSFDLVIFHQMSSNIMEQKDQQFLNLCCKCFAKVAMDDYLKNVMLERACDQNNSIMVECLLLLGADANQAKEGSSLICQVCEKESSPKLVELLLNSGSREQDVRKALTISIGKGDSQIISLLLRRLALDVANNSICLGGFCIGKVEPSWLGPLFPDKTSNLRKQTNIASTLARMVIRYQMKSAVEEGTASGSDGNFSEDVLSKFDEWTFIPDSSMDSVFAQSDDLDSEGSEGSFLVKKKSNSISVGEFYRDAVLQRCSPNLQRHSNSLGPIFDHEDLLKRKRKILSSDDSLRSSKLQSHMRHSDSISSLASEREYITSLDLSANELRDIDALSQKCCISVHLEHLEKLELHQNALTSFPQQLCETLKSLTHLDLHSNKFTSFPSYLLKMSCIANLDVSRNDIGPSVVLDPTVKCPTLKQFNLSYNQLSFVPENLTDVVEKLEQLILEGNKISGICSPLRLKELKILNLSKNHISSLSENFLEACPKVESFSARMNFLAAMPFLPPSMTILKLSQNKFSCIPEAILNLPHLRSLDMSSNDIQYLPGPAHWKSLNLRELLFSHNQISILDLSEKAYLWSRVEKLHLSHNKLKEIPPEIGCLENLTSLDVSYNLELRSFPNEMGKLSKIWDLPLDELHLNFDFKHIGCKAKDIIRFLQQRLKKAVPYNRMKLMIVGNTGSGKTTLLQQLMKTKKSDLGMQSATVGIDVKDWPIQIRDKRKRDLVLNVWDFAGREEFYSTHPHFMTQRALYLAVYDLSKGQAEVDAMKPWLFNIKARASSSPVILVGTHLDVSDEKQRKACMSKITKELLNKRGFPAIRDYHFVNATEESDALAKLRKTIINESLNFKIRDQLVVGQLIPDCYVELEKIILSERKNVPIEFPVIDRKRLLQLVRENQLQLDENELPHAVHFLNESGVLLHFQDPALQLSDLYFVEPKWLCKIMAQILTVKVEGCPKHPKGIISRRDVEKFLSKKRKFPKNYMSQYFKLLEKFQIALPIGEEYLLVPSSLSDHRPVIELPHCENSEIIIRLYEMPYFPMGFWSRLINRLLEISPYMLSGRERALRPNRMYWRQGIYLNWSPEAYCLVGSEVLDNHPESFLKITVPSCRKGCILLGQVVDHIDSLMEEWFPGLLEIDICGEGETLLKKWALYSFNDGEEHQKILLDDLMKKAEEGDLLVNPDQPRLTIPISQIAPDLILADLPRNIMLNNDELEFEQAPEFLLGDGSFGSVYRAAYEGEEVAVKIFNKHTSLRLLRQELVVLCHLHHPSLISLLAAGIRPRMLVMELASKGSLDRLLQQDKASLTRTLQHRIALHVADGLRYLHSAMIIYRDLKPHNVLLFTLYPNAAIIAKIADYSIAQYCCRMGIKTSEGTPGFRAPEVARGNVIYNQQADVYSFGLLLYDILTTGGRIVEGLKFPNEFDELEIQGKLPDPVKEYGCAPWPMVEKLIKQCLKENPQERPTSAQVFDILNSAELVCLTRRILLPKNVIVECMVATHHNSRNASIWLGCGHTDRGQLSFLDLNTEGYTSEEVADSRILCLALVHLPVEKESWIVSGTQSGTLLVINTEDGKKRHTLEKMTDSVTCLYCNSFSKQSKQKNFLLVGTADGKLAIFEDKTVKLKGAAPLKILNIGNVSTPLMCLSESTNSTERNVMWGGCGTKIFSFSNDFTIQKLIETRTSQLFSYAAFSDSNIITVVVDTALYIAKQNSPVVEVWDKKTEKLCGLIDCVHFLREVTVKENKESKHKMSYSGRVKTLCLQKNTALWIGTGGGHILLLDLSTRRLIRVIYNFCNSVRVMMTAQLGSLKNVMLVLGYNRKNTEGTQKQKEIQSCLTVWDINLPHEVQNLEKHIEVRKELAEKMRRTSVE
As to the kind of experiment: In cellulo phospho-Rab / LRRK2 autophosphorylation assay in HEK293T cells. The class given is cell-based. Also noted: key to Functional Group (see FIG. 2d): Group 1: group 1: Nbs that inhibit both LRRK2 autophosphorylation and Rab10 phosphorylation in cells; Group 2: group 2: Nbs that inhibit only Rab10 phosphorylation; Group 3: group 3: Nbs that activate LRRK2 kinase activity; Group 4: group 4: Nbs that have no consistent/clear effect on LRRK2 kinase activity. As for the experimental part: (FIGS. 2A-2C) LRRK2(G2019S) and its effector Rab29 were overexpressed together with GFP-fused Nbs (“Fluobody”) in HEK293T cells. A negative control, where no Nb is overexpressed (“No Nb”) is also included. […] In rows labeled “pLRRK2”, LRRK2 pS1292 levels are determined by Western Blot using a site-specific anti-pLRRK2(pS1292) antibody (Abcam, ab203181) (shown at different times of development). In the rows labeled “pRAB10”, endogenous pT72-Rab10 levels are determined by Western Blot using the MJFF/Abcam antibody MJF-R21 (Abcam, ab230261) (shown at different times of development). The three lower rows contain controls of LRRK2 (rat anti-LRRK2, 24D8), Fluobody (rat anti-GFP) and Rab10 (rabbit anti-Rab10) expression levels. (FIG. 2D) Based on the results of panels (FIGS. 2A-2C) the Nbs can be divided into 4 functional groups, with group 1: Nbs that inhibit both LRRK2 autophosphorylation and Rab10 phosphorylation in cells; group 2: Nbs that inhibit only Rab10 phosphorylation; group 3: Nbs that activate LRRK2 kinase activity; group 4: Nbs that have no consistent/clear effect on LRRK2 kinase activity.
To assess the influence of the Nbs on LRRK2 kinase activity we monitored two physiologically and disease relevant activities of LRRK2: phosphorylation of the endogenous substrate Rab10 at position T72 and LRRK2 autophosphorylation at position S1292 [25-30]. […] In our cellular assay we thus co-expressed LRRK2(G2019S), Rab29 and the different Nb-GFP fusions in HEK 293T cells (FIG. 2a-c).
HEK 293T cells were cultured in DMEM (supplemented with 10% Fetal Bovine Serum, […] L-Glutamine and 0.5% Pen/Strep). For the assay, the cells were seeded onto six-well plates and transfected at a confluency of 50-70% with the individual Nb-GFP expression constructs, SF-tagged LRRK2(G2019S) and FLAG-HA Rab29 using a self-made polyethylenimine (PEI)-based transfection reagent. After 48 hrs cells were lysed in lysis buffer [30 mM Tris-HCL (pH7.4), 150 mM NaCl, 0.5% Nonident-P40, complete protease inhibitor cocktail, phosphatase inhibitor cocktail II & III (all Sigma)]. Lysates were cleared by centrifugation at 10,000×g and adjusted to a protein concentration of 1 μg/μl in 1× Laemmli Buffer. Samples were subsequently subjected to SDS PAGE and Western Blot analysis to determine LRRK2 pS1292 and Rab10 T72 phosphorylation levels, as described below. Total LRRK2 and Rab10 levels were determined as a reference.
For western blot analysis, protein samples were separated by SDS-PAGE using NuPAGE 10% Bis-Tris gels (Invitrogen) and transferred onto PVDF membranes (Thermo Fisher). To allow simultaneous probing for LRRK2 on the one hand and Rab and the Nb-GFP fusions on the other hand, membranes were cut horizontally at the 140 kDa MW marker band. After blocking non-specific binding sites with 5% non-fat dry milk in TBST (1 h, RT) (25 mM Tris, pH 7.4, 150 mM NaCl, 0.1% Tween-20), membranes were incubated overnight at 4° C. with primary antibodies at dilutions specified below. Phospho-specific antibodies were diluted in TBST/5% BSA (Roth GmbH). Non-phospho-specific antibodies were diluted in TBST/5% non-fat dry milk powder (BioRad). Phospho-Rab10 levels were determined by the site-specific rabbit monoclonal antibody anti-pRAB10([…]) (Abcam, ab230261) and LRRK2 autophosphorylation was determined by the site-specific rabbit monoclonal antibody anti-pLRRK2(pS1292) (Abcam, ab203181), both at a dilution of 1:2,000. Total LRRK2 levels were determined by the in-house rat monoclonal antibody anti-pan-LRRK2 (clone 24D8; 1:10,000). Total Rab10 levels were determined by the rabbit monoclonal antibody anti-RAB10/ERP13424 (Abcam, ab181367) at a dilution of 1:5,000. Nb-GFP fusion proteins were detected using the rat monoclonal antibody anti-GFP (clone 3H9, ChromoTec) at a dilution of 1:2,000. For detection, goat anti-rat IgG or anti-rabbit IgG HRP-coupled secondary antibodies (Jackson ImmunoResearch) were used at a dilution of 1:15,000 in TBST/5% non-fat dry milk powder. […]

The target in series [3] is T3, LRRK2 RocCOR domain construct (human, UniProt Q5S007 1334-1840).
T3 construct: A second construct (residues 1293-1840, N-terminal His6-MBP) was used in certain screening experiments; not shown: N-terminal Twin-Strep-tag; C-terminal His10-tag
T3 sequence: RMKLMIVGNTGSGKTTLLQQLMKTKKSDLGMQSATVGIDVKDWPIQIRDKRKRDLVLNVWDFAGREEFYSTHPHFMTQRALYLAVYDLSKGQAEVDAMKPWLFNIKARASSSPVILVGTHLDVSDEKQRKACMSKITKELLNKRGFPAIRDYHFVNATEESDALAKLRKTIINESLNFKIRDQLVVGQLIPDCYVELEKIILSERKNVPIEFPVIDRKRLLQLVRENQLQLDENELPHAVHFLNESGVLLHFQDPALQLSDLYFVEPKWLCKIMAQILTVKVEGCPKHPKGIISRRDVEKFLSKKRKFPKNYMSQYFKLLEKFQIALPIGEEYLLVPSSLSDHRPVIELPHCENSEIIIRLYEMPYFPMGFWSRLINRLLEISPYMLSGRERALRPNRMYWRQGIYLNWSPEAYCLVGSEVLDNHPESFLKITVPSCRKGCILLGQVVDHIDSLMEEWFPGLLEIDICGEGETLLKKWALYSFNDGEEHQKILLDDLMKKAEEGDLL
Briefly: ELISA, antigen coated on the plate, purified Nb detected via its EPEA tag. An excerpt:
(§1) We recombinantly expressed and purified the RocCOR, Roc, COR-B and kinase-WD40 (K-WD40) domain constructs of LRRK2 (FIG. 7). Subsequently, we performed an ELISA in which all these domain constructs were coated in parallel next to each other in the same ELISA plate, and where we subsequently detected binding of the 42 purified Nbs. […] To enrich in Nbs directed against the Roc domain we specifically included a selection step with either Roc-GTPγS or Roc-GDP.
On the technique in general: An ELISA detects its analyte on a solid surface through an enzyme-linked reagent.

Series [4] deals with T4, LRRK2 COR-B construct (C-terminal part of the COR domain), His6-MBP tagged (human, UniProt Q5S007 1672-1840).
T4 construct: also called (MBP-)COR-B; not shown: N-terminal His6-MBP-tag of pDEST-566
Described as above.
Text: as §1

Series [5] deals with T5, LRRK2 Roc domain construct (human, UniProt Q5S007 1329-1520).
T5 construct: not shown: N-terminal His6-tag of pET-28a
T5 sequence: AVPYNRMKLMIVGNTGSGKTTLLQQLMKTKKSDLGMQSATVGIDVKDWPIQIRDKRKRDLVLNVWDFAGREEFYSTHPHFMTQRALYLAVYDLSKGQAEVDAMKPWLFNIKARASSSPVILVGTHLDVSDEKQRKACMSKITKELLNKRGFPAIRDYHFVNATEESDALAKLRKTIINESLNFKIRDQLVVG
The description is as above.
Text: as §1

T1 sequence (Q5S006 whole entry): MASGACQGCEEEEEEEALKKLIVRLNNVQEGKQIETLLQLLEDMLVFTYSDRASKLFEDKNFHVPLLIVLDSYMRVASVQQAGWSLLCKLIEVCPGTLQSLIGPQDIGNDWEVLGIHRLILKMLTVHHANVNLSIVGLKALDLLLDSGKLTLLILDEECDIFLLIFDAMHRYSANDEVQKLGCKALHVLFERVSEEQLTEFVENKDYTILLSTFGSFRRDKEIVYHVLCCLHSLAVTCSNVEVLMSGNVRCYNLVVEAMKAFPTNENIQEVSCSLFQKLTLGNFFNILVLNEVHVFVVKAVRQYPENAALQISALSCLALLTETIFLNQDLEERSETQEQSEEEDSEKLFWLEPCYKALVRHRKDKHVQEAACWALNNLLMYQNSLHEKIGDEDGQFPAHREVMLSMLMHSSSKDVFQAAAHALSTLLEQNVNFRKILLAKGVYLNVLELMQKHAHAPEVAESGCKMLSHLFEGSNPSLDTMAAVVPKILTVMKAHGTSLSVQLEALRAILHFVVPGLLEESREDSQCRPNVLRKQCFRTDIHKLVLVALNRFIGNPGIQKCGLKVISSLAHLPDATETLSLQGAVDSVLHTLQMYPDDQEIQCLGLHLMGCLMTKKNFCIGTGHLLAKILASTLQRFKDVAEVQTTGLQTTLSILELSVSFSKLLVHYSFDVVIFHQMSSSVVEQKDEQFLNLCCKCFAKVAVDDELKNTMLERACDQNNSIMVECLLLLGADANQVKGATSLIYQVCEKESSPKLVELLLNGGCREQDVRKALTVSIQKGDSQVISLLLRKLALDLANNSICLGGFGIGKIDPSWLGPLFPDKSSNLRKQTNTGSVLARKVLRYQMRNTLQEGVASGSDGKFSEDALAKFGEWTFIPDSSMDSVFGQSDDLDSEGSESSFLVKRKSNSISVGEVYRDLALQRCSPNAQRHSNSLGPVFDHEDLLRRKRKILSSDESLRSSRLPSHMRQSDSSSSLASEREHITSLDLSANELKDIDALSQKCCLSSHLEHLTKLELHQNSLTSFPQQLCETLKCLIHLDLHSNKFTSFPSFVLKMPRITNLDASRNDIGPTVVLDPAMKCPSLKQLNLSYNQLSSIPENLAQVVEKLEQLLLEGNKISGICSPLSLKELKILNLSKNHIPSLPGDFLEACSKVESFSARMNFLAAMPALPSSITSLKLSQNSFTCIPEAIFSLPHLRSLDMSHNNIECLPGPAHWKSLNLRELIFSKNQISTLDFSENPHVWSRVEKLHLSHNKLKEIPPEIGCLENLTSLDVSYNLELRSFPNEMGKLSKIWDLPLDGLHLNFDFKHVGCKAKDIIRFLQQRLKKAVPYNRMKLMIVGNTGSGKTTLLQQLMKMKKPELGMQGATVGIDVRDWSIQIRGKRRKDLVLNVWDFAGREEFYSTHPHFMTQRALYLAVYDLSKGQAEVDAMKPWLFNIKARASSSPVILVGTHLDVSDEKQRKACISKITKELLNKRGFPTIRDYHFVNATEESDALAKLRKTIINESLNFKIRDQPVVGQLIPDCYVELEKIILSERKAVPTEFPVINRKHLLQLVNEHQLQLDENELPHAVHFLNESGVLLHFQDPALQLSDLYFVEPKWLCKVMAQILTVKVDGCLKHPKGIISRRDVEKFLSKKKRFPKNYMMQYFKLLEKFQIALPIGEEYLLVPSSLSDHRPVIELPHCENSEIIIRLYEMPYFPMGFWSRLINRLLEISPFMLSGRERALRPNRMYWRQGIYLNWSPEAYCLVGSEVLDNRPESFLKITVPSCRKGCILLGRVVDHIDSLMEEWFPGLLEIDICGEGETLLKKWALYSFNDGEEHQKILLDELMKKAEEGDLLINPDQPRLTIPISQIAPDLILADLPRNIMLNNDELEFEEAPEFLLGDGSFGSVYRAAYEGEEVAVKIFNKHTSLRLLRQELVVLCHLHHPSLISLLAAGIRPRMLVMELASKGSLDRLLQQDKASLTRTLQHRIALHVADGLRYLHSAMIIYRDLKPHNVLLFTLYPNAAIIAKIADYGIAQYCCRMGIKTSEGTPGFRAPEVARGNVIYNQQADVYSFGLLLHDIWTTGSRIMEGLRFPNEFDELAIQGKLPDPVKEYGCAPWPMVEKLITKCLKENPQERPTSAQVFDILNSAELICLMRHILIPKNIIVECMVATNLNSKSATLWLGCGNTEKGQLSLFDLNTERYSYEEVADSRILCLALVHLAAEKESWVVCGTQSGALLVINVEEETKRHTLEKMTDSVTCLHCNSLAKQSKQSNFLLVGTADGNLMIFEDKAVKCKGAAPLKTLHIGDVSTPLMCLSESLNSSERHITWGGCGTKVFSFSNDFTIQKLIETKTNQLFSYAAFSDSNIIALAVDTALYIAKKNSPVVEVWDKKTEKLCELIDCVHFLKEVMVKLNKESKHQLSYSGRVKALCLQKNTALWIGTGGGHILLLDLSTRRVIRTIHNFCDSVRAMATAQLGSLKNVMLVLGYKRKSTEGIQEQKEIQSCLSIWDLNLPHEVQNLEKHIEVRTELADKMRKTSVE

B1: Nb36: LRRK2-specific Nanobody, SEQ ID NO: 7 (protein)
VHH: MAQVQLVESGGGLVQPGGSLRLSCAASGSIRSITTSAWFRQPPGKQRELVAGISSGTSTNYADSVKGRFTISRDNAKNTVYLQMNSLKPEDTAVYYCHVWISGTWYSGQGTQVTVSS
modifications: Nanobody CA14130
For the molecule B1, the “colocalization with endogenous LRRK2 on phagosomes” value in series [1] is “did not colocalize with endogenous LRRK2”. Also, the “LRRK2 autophosphorylation at position S1292” value in series [2] (HEK 293T cells co-expressing LRRK2(G2019S), Rab29 and Nb-GFP) is given as “inhibiting S1292 phosphorylation at a lesser extent”. Besides, in series [2] (HEK 293T cells co-expressing LRRK2(G2019S), Rab29 and Nb-GFP, Western blot), the “influence on LRRK2 kinase activity compared to the controls” value is listed as “strongly decreased LRRK2 autophosphorylation and/or Rab10 phosphorylation”. For the same molecule, the “Functional Group (see FIG. 2d)” value in series [2] (classification by effect on in cellulo LRRK2(G2019S) kinase activity) is “Group 2”. In series [2] (endogenous Rab10, HEK 293T cells co-expressing LRRK2(G2019S), Rab29 and Nb-GFP), the “Rab10 phosphorylation at position T72” value is “inhibit Rab10 phosphorylation”.

B2: Nb28 (CA13617) (VHH)
VHH: QVQLVESGGGLVQAGGSLRLSCAASGIIFHWYDMDWYRQAPGKQRELVATITTGGRADYADFVKGRFSISRDNAKTTVYLQMNSLKPEDTAVYYCSFQDHVLRRWGQGTQVTVSS
For the molecule B2, the binding result in series [3], in series [4] and in series [5] was “no binding (tested: not given)” in each case.

B3: Nb41 (CA14136) (VHH)
VHH: QVQLVESGGGLVQAGGSLRLSCEASVRTFSFYSMGWFRQAPGKEREFVAAIRWTAGSTSYADIVKGRFTISRDNGKNTVVLQMNSLEPEDTGVYYCAAQRGYLVEAASREYDYWGQGTQVTVSS
Turning to B3, the binding result in series [3], in series [4] and in series [5] was “no binding (tested: not given)” in each case.

B4: Nb13 (CA13602) (VHH)
VHH: QVQLVESGGGLVQPGGSLRLSCAASGSGFSIYAMGWARQAPGRQRELVAAITSGGSTNYADSVKGRFTISRDNAKNTVYLQMNSLKPEDTAVYYCNADITVVAGSTYDYWGQGTQVTVSS
In the case of B4, the binding result in series [3], in series [4] and in series [5] was “no binding (tested: not given)” throughout.

B5: Nb10 (CA13599) (VHH)
VHH: QVQLVESGGGLVQPGGSLRLSCAASGSIFSIYAMGWYRQAPGKQRELVAAITSGGDTNYADSVKGRFTISRDNAKNTVYLQMNSLKPEDTAVYYCNADHTPAGTFQTFDYWGQGTQVTVSS
B5: the binding result in series [3], in series [4] and in series [5] was “no binding (tested: not given)” throughout.
